Values joined by “and” are separate entries in the source; they are usually repeats but may differ in a detail not shown here. Equal values may be shown once. Read-outs that look alike come from different tables or passages of the source.
How the values were obtained:
[1] = target: EndoH-DyLight (GluA2 ATD, EndoH-digested, DyLight-labeled); assay: fluorescence polarisation
EndoH-digested GluA2S [2] = assay: AUC
EndoH-digested GluA2S [3] = assay: AUC; remark: listed apart in the source
EndoH-digested GluA2S [4] = assay: AUC; remark: listed apart in the source
EndoH-digested GluA2S [5] = assay: AUC; remark: listed apart in the source
EndoH-digested GluA2S [6] = assay: AUC; remark: listed apart in the source
[7] = target: EndoH-digested, FAM-labeled GluA2S; assay: AUC
[8] = target: EndoH-digested, FAM-labeled GluA2S; assay: AUC; remark: listed apart in the source
[9] = target: EndoH-digested, FAM-labeled GluA2S; assay: AUC; remark: listed apart in the source
GluA2 ATD, GnTI− = assay: AUC
GluA2L = assay: AUC
[10] = target: GluA2S, GluA2 ATD with complex glycosylation (293T); assay: AUC
[11] = target: GluA2S, GluA2 ATD with complex glycosylation (293T); assay: AUC; remark: listed apart in the source
GluA2S-FAM = assay: AUC
[12] = target: GluA3 (AMPA receptor amino-terminal domain); assay: AUC

Chain of EndoH-DyLight (GluA2 ATD, EndoH-digested, DyLight-labeled) (P19491 22-883): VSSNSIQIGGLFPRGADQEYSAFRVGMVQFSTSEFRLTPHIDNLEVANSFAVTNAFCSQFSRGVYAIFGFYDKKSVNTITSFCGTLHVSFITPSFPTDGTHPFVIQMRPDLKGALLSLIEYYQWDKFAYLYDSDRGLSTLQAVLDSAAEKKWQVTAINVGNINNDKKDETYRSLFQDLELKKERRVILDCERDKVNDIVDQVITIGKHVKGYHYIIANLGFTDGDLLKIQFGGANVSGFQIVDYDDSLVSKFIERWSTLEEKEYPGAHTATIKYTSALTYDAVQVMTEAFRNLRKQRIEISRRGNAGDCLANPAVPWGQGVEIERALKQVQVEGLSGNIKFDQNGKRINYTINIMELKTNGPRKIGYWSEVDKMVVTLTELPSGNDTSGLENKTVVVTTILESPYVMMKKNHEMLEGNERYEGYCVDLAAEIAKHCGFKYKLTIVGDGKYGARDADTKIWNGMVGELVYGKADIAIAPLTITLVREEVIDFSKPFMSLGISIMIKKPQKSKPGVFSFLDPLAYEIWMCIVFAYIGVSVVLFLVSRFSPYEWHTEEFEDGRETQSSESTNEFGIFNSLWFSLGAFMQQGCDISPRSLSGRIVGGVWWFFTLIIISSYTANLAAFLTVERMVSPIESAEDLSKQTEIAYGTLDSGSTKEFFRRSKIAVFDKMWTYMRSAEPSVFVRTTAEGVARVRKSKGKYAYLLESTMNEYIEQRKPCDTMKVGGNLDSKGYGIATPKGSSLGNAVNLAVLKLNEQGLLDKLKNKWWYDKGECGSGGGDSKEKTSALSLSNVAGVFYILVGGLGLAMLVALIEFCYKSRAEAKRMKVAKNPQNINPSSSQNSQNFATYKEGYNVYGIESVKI
Chain of EndoH-digested, FAM-labeled GluA2S (P19491 22-883): as above
Chain of EndoH-digested GluA2S (P19491 22-883): as above
Chain of GluA2S, GluA2 ATD with complex glycosylation (293T) (P19491 22-883, one chain of several): as the sequence (P19491 22-883) above
Chain of GluA3 (AMPA receptor amino-terminal domain) (P19492 23-888): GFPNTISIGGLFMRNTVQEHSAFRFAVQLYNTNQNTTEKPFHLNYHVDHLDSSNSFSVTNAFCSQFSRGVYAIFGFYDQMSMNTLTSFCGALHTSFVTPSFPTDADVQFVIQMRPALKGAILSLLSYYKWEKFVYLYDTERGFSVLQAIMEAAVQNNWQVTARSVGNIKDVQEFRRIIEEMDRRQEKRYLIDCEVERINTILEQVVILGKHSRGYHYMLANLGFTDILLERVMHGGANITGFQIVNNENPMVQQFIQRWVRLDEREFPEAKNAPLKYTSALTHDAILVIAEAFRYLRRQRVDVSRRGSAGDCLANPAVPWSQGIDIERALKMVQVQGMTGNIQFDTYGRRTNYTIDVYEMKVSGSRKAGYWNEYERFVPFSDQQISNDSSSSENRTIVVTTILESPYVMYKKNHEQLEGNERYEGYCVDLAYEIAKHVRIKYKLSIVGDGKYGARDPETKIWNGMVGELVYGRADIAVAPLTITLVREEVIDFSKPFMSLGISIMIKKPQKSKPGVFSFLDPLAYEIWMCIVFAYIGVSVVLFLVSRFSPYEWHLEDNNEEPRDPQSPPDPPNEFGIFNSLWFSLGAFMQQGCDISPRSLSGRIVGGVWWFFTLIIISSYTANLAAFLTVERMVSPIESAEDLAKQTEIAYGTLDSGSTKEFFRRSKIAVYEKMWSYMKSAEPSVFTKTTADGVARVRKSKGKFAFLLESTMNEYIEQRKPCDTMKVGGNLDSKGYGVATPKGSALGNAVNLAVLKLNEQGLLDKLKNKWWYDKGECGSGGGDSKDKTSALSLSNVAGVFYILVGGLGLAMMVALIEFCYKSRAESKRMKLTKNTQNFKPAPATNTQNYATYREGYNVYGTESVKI
Chain of GluA2S-FAM (P19491 22-883): as the sequence (P19491 22-883) above
Chain of GluA2 ATD, GnTI− (P19491 22-883): as above
Chain of GluA2L (P19491 22-883): as above

EndoH-DyLight (GluA2 ATD, EndoH-digested, DyLight-labeled) (domain or fragment)
Kd [1]: 10.8 nM and 11.3 nM and 8.43 nM

EndoH-digested GluA2S (domain or fragment)
Kd (EndoH-digested GluA2S [2]): 30 nM
Kd (EndoH-digested GluA2S [3]): 160 nM and 284 nM
stoichiometry N (EndoH-digested GluA2S [3]): 2
Kd (EndoH-digested GluA2S [4]): 12 nM and 8.3 nM and 10 nM
Kd (EndoH-digested GluA2S [5]): 17 nM
Kd (EndoH-digested GluA2S [6]): 12 nM

EndoH-digested, FAM-labeled GluA2S (domain or fragment)
Kd [7]: 2.5 nM
Kd [8]: 10 nM
Kd [9]: 13 nM

GluA2 ATD, GnTI− (domain or fragment)
Kd (GluA2 ATD, GnTI−): 11 nM

GluA2L (domain or fragment)
Kd (GluA2L): 5.5 nM

GluA2S, GluA2 ATD with complex glycosylation (293T) (domain or fragment)
Kd [10]: 6 nM
stoichiometry N [10]: 2
Kd [11]: 8.3 nM

GluA2S-FAM (domain or fragment)
Kd (GluA2S-FAM): 14.9 nM

GluA3 (AMPA receptor amino-terminal domain) (domain or fragment)
Kd [12]: 5600 nM
stoichiometry N [12]: 2

Reference: paper PMC3664699
